Conditions: Escherichia coli (strain K12); pH 7.5; Thermal; Intensity; HEPES 20mM; transition: 2; whole UniProt chain shown

| Protein | Tm [°C] |
| --- | --- |
| tRNA pseudouridine synthase D wild type, Q57261 (protein) MIEFDNLTYLHGKPQGTGLLKANPEDFVVVEDLGFEPDGEGEHILVRILKNGCNTRFVADALAKFLKIHAREVSFAGQKDKHAVTEQWLCARVPGKEMPDLSAFQLEGCQVLEYARHKRKLRLGALKGNAFTLVLREVSNRDDVEQRLIDICVKGVPNYFGAQRFGIGGSNLQGAQRWAQTNTPVRDRNKRSFWLSAARSALFNQIVAERLKKADVNQVVDGDALQLAGRGSWFVATTEELAELQRRVNDKELMITAALPGSGEWGTQREALAFEQAAVAAETELQALLVREKVEAARRAMLLYPQQLSWNWWDDVTVEIRFWLPAGSFATSVVRELINTTGDYAHIAE | 43.8 |
| NH(3)-dependent NAD(+) synthetase wild type, P18843 (protein) MTLQQQIIKALGAKPQINAEEEIRRSVDFLKSYLQTYPFIKSLVLGISGGQDSTLAGKLCQMAINELRLETGNESLQFIAVRLPYGVQADEQDCQDAIAFIQPDRVLTVNIKGAVLASEQALREAGIELSDFVRGNEKARERMKAQYSIAGMTSGVVVGTDHAAEAITGFFTKYGDGGTDINPLYRLNKRQGKQLLAALACPEHLYKKAPTADLEDDRPSLPDEVALGVTYDNIDDYLEGKNVPQQVARTIENWYLKTEHKRRPPITVFDDFWKK | 45.1 |
| Enoyl-[acyl-carrier-protein] reductase [NADH] FabI wild type, P0AEK4 (protein) MGFLSGKRILVTGVASKLSIAYGIAQAMHREGAELAFTYQNDKLKGRVEEFAAQLGSDIVLQCDVAEDASIDTMFAELGKVWPKFDGFVHSIGFAPGDQLDGDYVNAVTREGFKIAHDISSYSFVAMAKACRSMLNPGSALLTLSYLGAERAIPNYNVMGLAKASLEANVRYMANAMGPEGVRVNAISAGPIRTLAASGIKDFRKMLAHCEAVTPIRRTVTIEDVGNSAAFLCSDLSAGISGEVVHVDGGFSIAAMNELELK | 45.3 |
| Transcriptional repressor MprA wild type, P0ACR9 (protein) MDSSFTPIEQMLKFRASRHEDFPYQEILLTRLCMHMQSKLLENRNKMLKAQGINETLFMALITLESQENHSIQPSELSCALGSSRTNATRIADELEKRGWIERRESDNDRRCLHLQLTEKGHEFLREVLPPQHNCLHQLWSALSTTEKDQLEQITRKLLSRLDQMEQDGVVLEAMS | 45.9 |
| Multidrug efflux pump subunit AcrA wild type, P0AE06 (protein) MNKNRGFTPLAVVLMLSGSLALTGCDDKQAQQGGQQMPAVGVVTVKTEPLQITTELPGRTSAYRIAEVRPQVSGIILKRNFKEGSDIEAGVSLYQIDPATYQATYDSAKGDLAKAQAAANIAQLTVNRYQKLLGTQYISKQEYDQALADAQQANAAVTAAKAAVETARINLAYTKVTSPISGRIGKSNVTEGALVQNGQATALATVQQLDPIYVDVTQSSNDFLRLKQELANGTLKQENGKAKVSLITSDGIKFPQDGTLEFSDVTVDQTTGSITLRAIFPNPDHTLLPGMFVRARLEEGLNPNAILVPQQGVTRTPRGDATVLVVGADDKVETRPIVASQAIGDKWLVTEGLKAGDRVVISGLQKVRPGVQVKAQEVTADNNQQAASGAQPEQSKS | 45.7 |
| Uncharacterized protein YjaG wild type, P32680 (protein) MLQNPIHLRLERLESWQHVTFMACLCERMYPNYAMFCQQTGFGDGQIYRRILDLIWETLTVKDAKVNFDSQLEKFEEAIPSADDFDLYGVYPAIDACVALSELVHSRLSGETLEHAVEVSKTSITTVAMLEMTQAGREMSDEELKENPAVEQEWDIQWEIFRLLAECEERDIELIKGLRADLREAGESNIGIIFQQ | 46.1 |
| Acetylornithine deacetylase wild type, P23908 (protein) MKNKLPPFIEIYRALIATPSISATEEALDQSNADLITLLADWFKDLGFNVEVQPVPGTRNKFNMLASIGQGAGGLLLAGHTDTVPFDDGRWTRDPFTLTEHDGKLYGLGTADMKGFFAFILDALRDVDVTKLKKPLYILATADEETSMAGARYFAETTALRPDCAIIGEPTSLQPVRAHKGHISNAIRIQGQSGHSSDPARGVNAIELMHDAIGHILQLRDNLKERYHYEAFTVPYPTLNLGHIHGGDASNRICACCELHMDIRPLPGMTLNELNGLLNDALAPVSERWPGRLTVDELHPPIPGYECPPNHQLVEVVEKLLGAKTEVVNYCTEAPFIQTLCPTLVLGPGSINQAHQPDEYLETRFIKPTRELITQVIHHFCWH | 45.9 |
| Zinc chaperone YeiR wild type, P33030 (protein) MTRTNLITGFLGSGKTTSILHLLAHKDPNEKWAVLVNEFGEVGIDGALLADSGALLKEIPGGCMCCVNGLPMQVGLNTLLRQGKPDRLLIEPTGLGHPKQILDLLTAPVYEPWIDLRATLCILDPRLLLDEKSASNENFRDQLAAADIIVANKSDRTTPESEQALQRWWQQNGGDRQLIHSEHGKVDGHLLDLPRRNLAELPASAAHSHQHVVKKGLAALSLPEHQRWRRSLNSGQGYQACGWIFDADTVFDTIGILEWARLAPVERVKGVLRIPEGLVRINRQGDDLHIETQNVAPPDSRIELISSSEADWNALQSALLKLRLATTA | 46.2 |
| Acyl-CoA thioester hydrolase YciA wild type, P0A8Z0 (protein) MSTTHNVPQGDLVLRTLAMPADTNANGDIFGGWLMSQMDIGGAILAKEIAHGRVVTVRVEGMTFLRPVAVGDVVCCYARCVQKGTTSVSINIEVWVKKVASEPIGQRYKATEALFKYVAVDPEGKPRALPVE | 46.3 |
